Where two headings read alike, the source gives them in different places.
Assays:
[1] = biological target: SHARP (SPEN) (Mus musculus) (UniProt Q62504); conditions: UV crosslinked RIP-qPCR
[2] = tested on: SAF-A (hnRNPU) (Mus musculus); conditions: RAP-MS, UV crosslinked, denaturing
[3] = tested on: hnRNPM (Mus musculus); conditions: RAP-MS, UV crosslinked, denaturing
[4] = tested on: MYEF2 (Mus musculus); conditions: UV crosslinked RIP; RAP-MS
[5] = tested on: hnRNPC; conditions: UV crosslinked RIP; RAP-MS
[6] = tested on: RBM15 (Mus musculus); conditions: UV crosslinked RIP; RAP-MS
[7] = tested on: RALY; conditions: UV crosslinked RIP; RAP-MS
[8] = tested on: CELF1 (Mus musculus); conditions: UV crosslinked RIP; RAP-MS
[9] = tested on: PTBP1 (Mus musculus); conditions: UV crosslinked RIP; CLIP site 10859-11344
[10] = tested on: ΔRS-LBR deletion of amino acids 71-90 (Homo sapiens); conditions: FLAG IP RT-qPCR, UV crosslinked

Sequence of UniProt Q62504 (Q62504 whole entry): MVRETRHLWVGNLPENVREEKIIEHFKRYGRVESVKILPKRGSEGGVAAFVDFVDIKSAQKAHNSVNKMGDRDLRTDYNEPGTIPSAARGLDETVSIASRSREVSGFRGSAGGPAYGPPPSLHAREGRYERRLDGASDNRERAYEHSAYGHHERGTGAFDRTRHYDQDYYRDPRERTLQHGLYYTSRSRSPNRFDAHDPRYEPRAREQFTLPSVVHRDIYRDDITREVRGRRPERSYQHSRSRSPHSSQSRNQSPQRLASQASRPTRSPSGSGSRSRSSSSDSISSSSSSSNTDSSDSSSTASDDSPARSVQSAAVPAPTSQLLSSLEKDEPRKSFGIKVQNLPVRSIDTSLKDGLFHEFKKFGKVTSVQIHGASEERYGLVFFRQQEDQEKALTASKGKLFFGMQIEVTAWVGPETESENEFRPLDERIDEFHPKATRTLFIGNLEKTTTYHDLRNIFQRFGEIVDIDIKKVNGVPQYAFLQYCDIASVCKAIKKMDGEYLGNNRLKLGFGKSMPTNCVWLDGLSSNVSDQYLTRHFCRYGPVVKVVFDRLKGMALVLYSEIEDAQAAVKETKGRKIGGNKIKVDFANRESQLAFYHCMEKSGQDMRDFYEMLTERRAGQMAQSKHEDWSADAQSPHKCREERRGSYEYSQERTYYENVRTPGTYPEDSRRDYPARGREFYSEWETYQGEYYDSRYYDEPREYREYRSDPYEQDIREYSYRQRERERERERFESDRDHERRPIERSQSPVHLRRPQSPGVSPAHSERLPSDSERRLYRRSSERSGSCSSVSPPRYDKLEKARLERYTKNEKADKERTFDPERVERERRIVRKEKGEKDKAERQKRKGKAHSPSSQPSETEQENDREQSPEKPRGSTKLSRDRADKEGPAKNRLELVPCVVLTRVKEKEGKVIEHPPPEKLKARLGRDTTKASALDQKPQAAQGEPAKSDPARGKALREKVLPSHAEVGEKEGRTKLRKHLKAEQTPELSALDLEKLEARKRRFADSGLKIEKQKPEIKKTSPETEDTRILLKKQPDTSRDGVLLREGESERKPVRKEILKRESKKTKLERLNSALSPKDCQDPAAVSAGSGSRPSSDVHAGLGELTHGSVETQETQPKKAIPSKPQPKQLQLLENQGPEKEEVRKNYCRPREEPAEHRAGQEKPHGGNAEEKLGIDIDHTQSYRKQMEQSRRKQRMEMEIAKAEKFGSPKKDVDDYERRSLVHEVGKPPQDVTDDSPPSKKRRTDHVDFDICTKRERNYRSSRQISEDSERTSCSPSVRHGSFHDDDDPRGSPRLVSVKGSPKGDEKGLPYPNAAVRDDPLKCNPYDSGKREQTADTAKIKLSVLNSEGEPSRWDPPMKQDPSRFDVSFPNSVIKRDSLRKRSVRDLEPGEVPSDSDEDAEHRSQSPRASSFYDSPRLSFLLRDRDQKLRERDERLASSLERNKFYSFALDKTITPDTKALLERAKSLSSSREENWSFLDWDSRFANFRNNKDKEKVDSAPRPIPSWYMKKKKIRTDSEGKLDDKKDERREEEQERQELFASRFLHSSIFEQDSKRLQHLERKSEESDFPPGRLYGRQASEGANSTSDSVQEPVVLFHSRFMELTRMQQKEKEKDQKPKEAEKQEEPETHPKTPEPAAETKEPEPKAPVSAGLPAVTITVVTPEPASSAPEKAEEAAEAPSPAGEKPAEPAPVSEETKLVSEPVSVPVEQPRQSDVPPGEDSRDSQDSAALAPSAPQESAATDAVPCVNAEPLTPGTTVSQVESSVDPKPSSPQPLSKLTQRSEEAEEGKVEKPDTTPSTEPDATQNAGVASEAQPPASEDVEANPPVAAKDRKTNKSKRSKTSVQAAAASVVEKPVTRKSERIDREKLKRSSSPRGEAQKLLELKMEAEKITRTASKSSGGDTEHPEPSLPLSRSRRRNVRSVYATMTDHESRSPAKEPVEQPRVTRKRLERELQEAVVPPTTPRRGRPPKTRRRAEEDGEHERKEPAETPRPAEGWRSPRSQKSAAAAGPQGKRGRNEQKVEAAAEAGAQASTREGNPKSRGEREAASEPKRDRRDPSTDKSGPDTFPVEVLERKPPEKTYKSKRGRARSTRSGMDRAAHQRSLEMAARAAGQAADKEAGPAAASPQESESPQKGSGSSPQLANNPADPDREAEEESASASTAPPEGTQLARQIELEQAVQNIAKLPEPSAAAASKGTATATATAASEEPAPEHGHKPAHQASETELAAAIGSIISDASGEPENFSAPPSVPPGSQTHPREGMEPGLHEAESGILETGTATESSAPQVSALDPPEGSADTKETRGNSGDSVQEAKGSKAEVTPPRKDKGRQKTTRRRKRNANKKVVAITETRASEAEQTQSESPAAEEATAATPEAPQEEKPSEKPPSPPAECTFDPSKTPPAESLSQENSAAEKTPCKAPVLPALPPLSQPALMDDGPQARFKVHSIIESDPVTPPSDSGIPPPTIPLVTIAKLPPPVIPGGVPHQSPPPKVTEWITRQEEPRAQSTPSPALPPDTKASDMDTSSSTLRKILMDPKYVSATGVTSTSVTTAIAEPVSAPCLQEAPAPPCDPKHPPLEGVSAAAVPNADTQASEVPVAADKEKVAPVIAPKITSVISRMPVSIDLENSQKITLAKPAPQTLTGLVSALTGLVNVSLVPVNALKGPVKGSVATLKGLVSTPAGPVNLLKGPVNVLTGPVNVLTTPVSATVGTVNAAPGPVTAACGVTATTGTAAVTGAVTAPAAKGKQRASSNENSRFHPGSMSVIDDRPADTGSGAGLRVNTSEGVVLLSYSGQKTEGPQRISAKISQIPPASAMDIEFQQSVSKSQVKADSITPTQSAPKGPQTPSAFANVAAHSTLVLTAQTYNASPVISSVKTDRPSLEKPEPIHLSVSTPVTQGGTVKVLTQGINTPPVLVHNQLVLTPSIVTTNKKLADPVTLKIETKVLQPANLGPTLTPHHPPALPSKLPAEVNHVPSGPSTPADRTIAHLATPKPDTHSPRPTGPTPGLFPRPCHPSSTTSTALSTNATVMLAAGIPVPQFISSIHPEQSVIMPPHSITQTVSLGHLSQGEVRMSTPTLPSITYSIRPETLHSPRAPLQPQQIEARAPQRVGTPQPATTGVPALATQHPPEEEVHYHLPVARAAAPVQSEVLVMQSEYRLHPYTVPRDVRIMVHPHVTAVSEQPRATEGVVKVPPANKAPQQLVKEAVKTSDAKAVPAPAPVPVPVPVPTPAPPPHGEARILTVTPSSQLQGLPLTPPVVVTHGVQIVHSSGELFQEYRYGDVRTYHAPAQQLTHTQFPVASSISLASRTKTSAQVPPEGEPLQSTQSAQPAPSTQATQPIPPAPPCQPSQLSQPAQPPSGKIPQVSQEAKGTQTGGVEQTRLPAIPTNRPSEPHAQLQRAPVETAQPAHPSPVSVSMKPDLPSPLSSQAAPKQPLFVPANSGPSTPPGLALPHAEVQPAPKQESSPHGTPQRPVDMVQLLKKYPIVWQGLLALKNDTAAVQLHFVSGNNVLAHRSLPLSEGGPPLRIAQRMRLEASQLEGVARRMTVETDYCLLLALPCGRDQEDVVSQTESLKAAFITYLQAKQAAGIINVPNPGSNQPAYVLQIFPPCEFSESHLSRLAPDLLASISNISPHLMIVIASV

Substance	binding signal (fold over IgG) ([1]; female ES cells)	binding signal (SILAC ratio Xist/U1) [2]	binding signal (SILAC ratio Xist/U1) [3]	binding signal (fold over IgG) ([1]; RA-treated female ES cells, CLIP site 317-1056)	binding signal (fold over input) [4]	binding signal (fold over input) [5]	binding signal (fold over input) [6]	binding signal (fold over input) [7]	binding signal (fold over input) [8]	binding signal (fold over input) [9]	binding signal (% reduced binding) [10]
45S pre-rRNA	< 1	–	–	–	–	–	–	–	–	–	–
Neat1 lncRNA	< 1	–	–	–	–	–	–	–	–	–	–
Xist lncRNA	–	> 3	> 3	> 45	> 4	> 4	> 4	> 4	> 4	> 4	97
